# Measured values from patent publication US20020045591A1, “Methods and therapeutic compositions for treating cancer” (priority 1998, published 2002).
# What was measured:
# [1] = molecular target: T1, β-catenin (Cricetulus griseus, UniProt G3H996); experiment: β-catenin level in CHO cells by Western blot; type: cell-based; conditions: stably transfected CHO cells, FIG. 2A
# T1 construct: resulting from the stabilization of the endogenous β-catenin by the transfected cadherin derivatives; endogenous in cells; host or cells: CHO cells, stably or transiently transfected with cadherin derivatives only
# T1 sequence (G3H996 1-781): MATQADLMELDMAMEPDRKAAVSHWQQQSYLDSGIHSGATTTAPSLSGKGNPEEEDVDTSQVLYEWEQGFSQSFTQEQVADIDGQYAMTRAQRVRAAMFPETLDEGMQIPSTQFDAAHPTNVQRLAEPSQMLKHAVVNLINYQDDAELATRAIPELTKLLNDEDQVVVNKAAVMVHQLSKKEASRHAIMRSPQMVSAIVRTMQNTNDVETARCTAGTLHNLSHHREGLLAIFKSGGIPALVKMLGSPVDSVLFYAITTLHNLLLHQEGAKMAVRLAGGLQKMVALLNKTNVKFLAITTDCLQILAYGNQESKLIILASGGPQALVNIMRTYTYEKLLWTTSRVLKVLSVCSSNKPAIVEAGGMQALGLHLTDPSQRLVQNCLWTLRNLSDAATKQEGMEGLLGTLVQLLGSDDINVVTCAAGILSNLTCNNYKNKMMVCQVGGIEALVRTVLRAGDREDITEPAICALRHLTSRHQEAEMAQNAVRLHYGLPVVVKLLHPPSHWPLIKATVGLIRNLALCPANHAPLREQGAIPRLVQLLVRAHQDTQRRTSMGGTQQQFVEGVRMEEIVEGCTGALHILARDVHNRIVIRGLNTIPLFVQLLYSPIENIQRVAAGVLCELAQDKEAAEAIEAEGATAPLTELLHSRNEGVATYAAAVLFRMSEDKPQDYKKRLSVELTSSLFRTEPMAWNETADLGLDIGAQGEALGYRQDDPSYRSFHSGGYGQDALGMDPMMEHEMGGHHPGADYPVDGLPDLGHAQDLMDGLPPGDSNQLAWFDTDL
# Description: Cell culture and transfections: CHO and SW480 human colon carcinoma cells were cultured in Dulbecco's modified Eagle's medium containing 10% fetal calf serum in an 8% CO2 incubator at 37° C. Transfections were performed using Lipofectamine (Gibco, BRL, USA) according to the manufacturer's instructions. Stably transfected CHO clones were generated by co-transfection with a plasmid encoding the puromycin resistance gene. Two days after transfection, cells were replated in the presence of 10 μg/ml puromycin (Sigma, Holon, Israel). Stable clones were isolated 2 weeks later and tested for the expression of the transgene by Western blot analysis.
# (§1) Immunoblotting and immunoprecipitation: The following antibodies were used: polyclonal pan-cadherin or monoclonal anti cadherin (CH-19) and polyclonal anti β-catenin antibodies were from Sigma (Holon, Israel). Monoclonal anti β-catenin, 5H10 (from M. Wheelock), anti IL2Rα (from UBI), anti flag (M2, from IBI), anti HA (clone 12CA5, from Boehringer Mannheim, Germany), anti GFP (polyclonal, from Clontech, Palo Alto, Calif.), anti LEF-1 (polyclonal, kindly provided by Dr. R. Grosschedl). […]
# [2] = molecular target: T2, LEF-1-β-catenin complex (Mus musculus, UniProt Q02248); experiment: Competition with LEF-1 for β-catenin binding (HA-LEF-1 immunoprecipitation, CHO cells); conditions: increasing amounts of N-cadherin tail cDNA, FIG. 8
# T2 construct: expressed in transfected cells; host or cells: CHO cells, transient transfection
# T2 sequence (Q02248 1-781): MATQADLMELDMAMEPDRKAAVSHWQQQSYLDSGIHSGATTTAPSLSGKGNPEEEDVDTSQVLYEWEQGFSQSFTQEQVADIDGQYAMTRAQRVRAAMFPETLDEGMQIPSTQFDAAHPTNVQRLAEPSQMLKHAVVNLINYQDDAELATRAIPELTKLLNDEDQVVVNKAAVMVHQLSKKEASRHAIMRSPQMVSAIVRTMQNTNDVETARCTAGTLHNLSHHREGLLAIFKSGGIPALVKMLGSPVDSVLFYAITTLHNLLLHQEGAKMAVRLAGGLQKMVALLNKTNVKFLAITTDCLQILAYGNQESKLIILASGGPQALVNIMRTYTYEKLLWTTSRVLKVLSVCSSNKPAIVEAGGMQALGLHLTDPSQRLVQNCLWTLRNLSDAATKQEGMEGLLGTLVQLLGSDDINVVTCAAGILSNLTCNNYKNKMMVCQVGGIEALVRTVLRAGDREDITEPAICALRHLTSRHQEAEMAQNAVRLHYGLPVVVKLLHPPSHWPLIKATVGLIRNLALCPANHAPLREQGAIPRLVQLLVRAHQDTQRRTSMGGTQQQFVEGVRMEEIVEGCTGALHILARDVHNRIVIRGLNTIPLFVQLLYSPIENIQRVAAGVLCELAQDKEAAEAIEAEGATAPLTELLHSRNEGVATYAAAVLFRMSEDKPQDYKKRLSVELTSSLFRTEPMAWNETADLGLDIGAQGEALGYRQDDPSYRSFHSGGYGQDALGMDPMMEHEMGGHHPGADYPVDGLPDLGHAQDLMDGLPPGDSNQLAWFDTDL
# Description: as §1, with “Grosschedl). Secondary antibodies for Western blotting were goat anti rabbit or anti mouse conjugated to HRP (Amersham, Buckinghampshire, UK), and for immunofluorescence analysis the secondary antibodies were FITC-goat anti mouse (Cappel, USA) or rhodamine-anti rabbit antibodies (from Jackson Immuno-Research, West Grove, Pa.).” for “Grosschedl).”
# The N-cadherin tail inhibits the formation of a LEF-1-β-catenin complex: The inhibition by N-cadherin of β-catenin driven-transactivation could result from either displacement of LEF-1 binding to β-catenin by N-cadherin, or by formation of a ternary complex (cadherin-LEF-1-β-catenin) that has no transactivation potential. […] After transfection, LEF-1 was immunoprecipitated with anti HA antibody and the associated β-catenin was detected by Western blot analysis (FIG. 8A). […]
molecule,measurement,setting,value
"N-cadherin tail: Cytoplasmic domain of chicken N-cadherin tagged with a Flag epitope (protein, left off: small tags and cut ends) MKRRDKERQAKQLLIDPEDDVRDNILKYDEEGGGEEDQDYDLSQLQQPDTVEPDAIKPVGIRRLDERPIHAEPQYPVRSAAPHPGDIGDFINEGLKAADNDPTAPPYDSLLVFDYEGSGSTAGSLSSLNSSSSGGEQDYDYLNDWGPRFKKLADMYGGGDD",effect on β-catenin levels,[1],increase in β-catenin levels
same,β-catenin binding to LEF-1,[2],inhibited β-catenin binding to LEF-1 in a dose dependent manner
